Target: T1, GST-eEF1A (full-length eEF1A/Tef1p fused to GST) (S. cerevisiae, UniProt P02994 1-458)
T1 construct: yeast eEF1A, TEF1 amplified by PCR from genomic DNA; also called GST-TEF1; full-length eEF1A fusion protein; not shown: GST, N-terminal, kept
T1 sequence (looked up): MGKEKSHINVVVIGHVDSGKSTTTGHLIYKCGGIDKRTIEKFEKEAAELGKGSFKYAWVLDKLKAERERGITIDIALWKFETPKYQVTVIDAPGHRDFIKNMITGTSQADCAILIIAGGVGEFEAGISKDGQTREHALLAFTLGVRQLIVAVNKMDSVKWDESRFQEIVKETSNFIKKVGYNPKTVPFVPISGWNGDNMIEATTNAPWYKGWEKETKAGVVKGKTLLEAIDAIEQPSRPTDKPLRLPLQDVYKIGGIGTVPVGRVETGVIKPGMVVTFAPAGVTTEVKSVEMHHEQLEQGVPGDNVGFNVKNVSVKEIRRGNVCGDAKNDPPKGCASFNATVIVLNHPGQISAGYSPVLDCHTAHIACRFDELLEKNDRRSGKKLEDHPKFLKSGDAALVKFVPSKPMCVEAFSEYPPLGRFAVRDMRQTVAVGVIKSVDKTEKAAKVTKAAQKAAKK
Test: pull-down; full-length GST-eEF1A on glutathione-Sepharose with lysates of ΔeIF2A yeast carrying YCplac111-YP, grown 1 h without or with 6% ethanol; Western blot for HA, bands quantified with Image J against 8% input
Details: one partner purified

fold increase in interaction (6% ethanol against untreated cells): 2 fold
B1: HA-eIF2A (N-terminally HA-tagged eukaryotic initiation factor 2A expressed from YCplac111-YP) (natural protein, S. cerevisiae, UniProt P53235 1-642, looked up)
chain: MSSQFFLKTSQDIELFQSYPTFEQSNTNSKDFPVISSVLSPCGRFLALSTKENVKVFTGPCLDNVLLTMKLSDVYDLHFSPAGNYLSTWERASIQDPNHKNVKVWYLNKPFKKDCVSEDIVPAYEYQAKSQSGWFLQFSKLDNYGLRLFKHDLKIVKLSSANADNFDFQSPFAVLSDDETSQHFTTYLISPAEHPTICTFTPEKGGKPAQLIIWALSEGKITKKIASKTFFKADSCQLKWNPLGNAILCLAITDFDSSNKSYYGENTLYLLSFQGVNGTLGGNSVRVSLTTGPVHDFTWSPTSRQFGVIAGYMPATISFFDLRGNVVHSLPQQAKNTMLFSPSGHYILIAGFGNLQGSVEILDRLDKFKCVSKFDATNTSVCKWSPGGEFIMTATTSPRLRVDNGVKIWHVSGSLVFVKEFKELLKVDWRSPCNYKTLENKDEAFFENHIINNWEPLPDSTTSSLDPKISNKSELQIHSSVQEYISQHPSREASSNGNGSKAKAGGAYKPPHARRTGGGRIVPGVPPGAAKKTIPGLVPGMSANKDANTKNRRRRANKKSSETSPDSTPAPSAPASTNAPTNNKETSPEEKKIRSLLKKLRAIETLKERQAVGDKLEDTQVLKIQTEEKVLKDLEKLGWKDE
notes: yeast eukaryotic initiation factor 2A, encoded by YGR054w; the HA-tagged eIF2A coding region behind its natural promoter; the kind of modification is not known; also called HA-tagged eIF2A; YGR054w; source: BY4684 ΔeIF2A yeast transformed with YCplac111-YP (native promoter), in lysate; not shown: HA, N-terminal, kept

Source: PMC3168509, “Insights into the Role of Yeast eIF2A in IRES-Mediated Translation” (PLoS ONE, 2011)
